# B1: DVD479 DLL4 arm (antibody)
# chain 1: EVQLVESGGGLVQPGGSLRLSCAASGFTFTDNWISWVRQAPGKGLEWVGYISPNSGFTYYADSVKGRFTISADTSKNTAYLQMNSLRAEDTAVYYCARDNFGGYFDYWGQGTLVTVSS
# chain 2: DIQMTQSPSSLSASVGDRVTITCRASQDVSTAVAWYQQKPGKAPKLLIYSASFLYSGVPSRFSGSGSGTDFTLTISSLQPEDFATTYYCQQSYTGTVTFGQGTKVEIKR
# modifications: DVD-Ig outer
# B2: DVD481 DLL4 arm (antibody)
# chain 1: EVQLVESGGGLVQPGGSLRLSCAASGFTFTDNWISWVRQAPGKGLEWVGYISPNSGFTYYADSVKGRFTISADTSKNTAYLQMNSLRAEDTAVYYCARDNFGGYFDYWGQGTLVTVSS
# chain 2: DIQMTQSPSSLSASVGDRVTITCRASQDVSTAVAWYQQKPGKAPKLLIYSASFLYSGVPSRFSGSGSGTDFTLTISSLQPEDFATTYYCQQSYTGTVTFGQGTKVEIKR
# modifications: DVD-Ig outer
# B3: DVD478 DLL4 arm (antibody)
# chain 1: EVQLVESGGGLVQPGGSLRLSCAASGFTFTDNWISWVRQAPGKGLEWVGYISPNSGFTYYADSVKGRFTISADTSKNTAYLQMNSLRAEDTAVYYCARDNFGGYFDYWGQGTLVTVSS
# chain 2: DIQMTQSPSSLSASVGDRVTITCRASQDVSTAVAWYQQKPGKAPKLLIYSASFLYSGVPSRFSGSGSGTDFTLTISSLQPEDFATTYYCQQSYTGTVTFGQGTKVEIKR
# modifications: DVD-Ig inner
# B4: DVD476 DLL4 arm (antibody)
# chain 1: EVQLVESGGGLVQPGGSLRLSCAASGFTFTDNWISWVRQAPGKGLEWVGYISPNSGFTYYADSVKGRFTISADTSKNTAYLQMNSLRAEDTAVYYCARDNFGGYFDYWGQGTLVTVSS
# chain 2: DIQMTQSPSSLSASVGDRVTITCRASQDVSTAVAWYQQKPGKAPKLLIYSASFLYSGVPSRFSGSGSGTDFTLTISSLQPEDFATTYYCQQSYTGTVTFGQGTKVEIKR
# modifications: DVD-Ig inner
# B5: DVD516 DLL4 arm (antibody, V domains shown)
# VH: EVQLQQSGPELEKPGASVKISCKASGYSFTGYNMNWVKQSNGKSLEWIGNIDPYFGGTNYNQKFKGKATLTVDKSSSTAYMQLKSLTSEDSAVYYCARNYDYDGGCFDYWGQGTTLTVSS
# VL: QAVVTQESALTTSPGETVTLTCRSSTGAVTTSNYANWVQEKPDHLFTGLIGGTNNRAPGVPARFSGSLIGDKAALTITGAQTEDEAIYFCALWYSNHWVFGGGTKLTVLG
# modifications: DVD-Ig inner
# B6: DVD517 DLL4 arm (antibody, V domains shown)
# VH: EVQLQQSGPELEKPGASVKISCKASGYSFTGYNMNWVKQSNGKSLEWIGNIDPYFGGTNYNQKFKGKATLTVDKSSSTAYMQLKSLTSEDSAVYYCARNYDYDGGCFDYWGQGTTLTVSS
# VL: QAVVTQESALTTSPGETVTLTCRSSTGAVTTSNYANWVQEKPDHLFTGLIGGTNNRAPGVPARFSGSLIGDKAALTITGAQTEDEAIYFCALWYSNHWVFGGGTKLTVLG
# modifications: DVD-Ig outer
# B7: DVD524 DLL4 arm (antibody, V domains shown)
# VH: EVQLQQSGPELEKPGASVKISCKASGYSFTGYNMNWVKQSNGKSLEWIGNIDPYFGGTNYNQKFKGKATLTVDKSSSTAYMQLKSLTSEDSAVYYCARNYDYDGGCFDYWGQGTTLTVSS
# VL: QAVVTQESALTTSPGETVTLTCRSSTGAVTTSNYANWVQEKPDHLFTGLIGGTNNRAPGVPARFSGSLIGDKAALTITGAQTEDEAIYFCALWYSNHWVFGGGTKLTVLG
# modifications: DVD-Ig inner
# B8: DVD518 DLL4 arm (antibody, V domains shown)
# VH: EVQLQQSGPELEKPGASVKISCKASGYSFTGYNMNWVKQSNGKSLEWIGNIDPYFGGTNYNQKFKGKATLTVDKSSSTAYMQLKSLTSEDSAVYYCARNYDYDGGCFDYWGQGTTLTVSS
# VL: QAVVTQESALTTSPGETVTLTCRSSTGAVTTSNYANWVQEKPDHLFTGLIGGTNNRAPGVPARFSGSLIGDKAALTITGAQTEDEAIYFCALWYSNHWVFGGGTKLTVLG
# modifications: DVD-Ig inner
# B9: DVD530 DLL4 arm (antibody, V domains shown)
# VH: EVQLQQSGPELEKPGASVKISCKASGYSFTGYNMNWVKQSNGKSLEWIGNIDPYFGGTNYNQKFKGKATLTVDKSSSTAYMQLKSLTSEDSAVYYCARNYDYDGGCFDYWGQGTTLTVSS
# VL: QAVVTQESALTTSPGETVTLTCRSSTGAVTTSNYANWVQEKPDHLFTGLIGGTNNRAPGVPARFSGSLIGDKAALTITGAQTEDEAIYFCALWYSNHWVFGGGTKLTVLG
# modifications: DVD-Ig inner
# B10: DVD528 DLL4 arm (antibody, V domains shown)
# VH: EVQLQQSGPELEKPGASVKISCKASGYSFTGYNMNWVKQSNGKSLEWIGNIDPYFGGTNYNQKFKGKATLTVDKSSSTAYMQLKSLTSEDSAVYYCARNYDYDGGCFDYWGQGTTLTVSS
# VL: QAVVTQESALTTSPGETVTLTCRSSTGAVTTSNYANWVQEKPDHLFTGLIGGTNNRAPGVPARFSGSLIGDKAALTITGAQTEDEAIYFCALWYSNHWVFGGGTKLTVLG
# modifications: DVD-Ig inner
# B11: DVD531 DLL4 arm (antibody, V domains shown)
# VH: EVQLQQSGPELEKPGASVKISCKASGYSFTGYNMNWVKQSNGKSLEWIGNIDPYFGGTNYNQKFKGKATLTVDKSSSTAYMQLKSLTSEDSAVYYCARNYDYDGGCFDYWGQGTTLTVSS
# VL: QAVVTQESALTTSPGETVTLTCRSSTGAVTTSNYANWVQEKPDHLFTGLIGGTNNRAPGVPARFSGSLIGDKAALTITGAQTEDEAIYFCALWYSNHWVFGGGTKLTVLG
# modifications: DVD-Ig outer
# B12: DVD501 DLL4 arm (antibody, V domains shown)
# VH: EVQLQQSGPELVKPGASVKMSCKASGYTFTSYVINWVKQKPGQGLEWIGLINPYNDGTKYNEKFKVKATLTSDKSSSTAYMELSSLTSEDSAVYYCASYYYGSRYYFDYWGQGTTLTVSS
# VL: DIQMTQSSSYLSVSLGGRVTITCKASDHINNWLAWYQQKPGNAPRLLISGATSLETGVPSRFSGSGSGKDYTLSITSLQTEDVATYYCQQYWSIPLTFGAGTKLELKR
# modifications: DVD-Ig outer
# B13: DVD496 DLL4 arm (antibody, V domains shown)
# VH: EVQLQQSGPELVKPGASVKMSCKASGYTFTSYVINWVKQKPGQGLEWIGLINPYNDGTKYNEKFKVKATLTSDKSSSTAYMELSSLTSEDSAVYYCASYYYGSRYYFDYWGQGTTLTVSS
# VL: DIQMTQSSSYLSVSLGGRVTITCKASDHINNWLAWYQQKPGNAPRLLISGATSLETGVPSRFSGSGSGKDYTLSITSLQTEDVATYYCQQYWSIPLTFGAGTKLELKR
# modifications: DVD-Ig inner
# B14: DVD502 DLL4 arm (antibody, V domains shown)
# VH: EVQLQQSGPELVKPGASVKMSCKASGYTFTSYVINWVKQKPGQGLEWIGLINPYNDGTKYNEKFKVKATLTSDKSSSTAYMELSSLTSEDSAVYYCASYYYGSRYYFDYWGQGTTLTVSS
# VL: DIQMTQSSSYLSVSLGGRVTITCKASDHINNWLAWYQQKPGNAPRLLISGATSLETGVPSRFSGSGSGKDYTLSITSLQTEDVATYYCQQYWSIPLTFGAGTKLELKR
# modifications: DVD-Ig inner
# B15: DVD494 DLL4 arm (antibody, V domains shown)
# VH: EVQLQQSGPELVKPGASVKMSCKASGYTFTSYVINWVKQKPGQGLEWIGLINPYNDGTKYNEKFKVKATLTSDKSSSTAYMELSSLTSEDSAVYYCASYYYGSRYYFDYWGQGTTLTVSS
# VL: DIQMTQSSSYLSVSLGGRVTITCKASDHINNWLAWYQQKPGNAPRLLISGATSLETGVPSRFSGSGSGKDYTLSITSLQTEDVATYYCQQYWSIPLTFGAGTKLELKR
# modifications: DVD-Ig inner
# B16: DVD503 DLL4 arm (antibody, V domains shown)
# VH: EVQLQQSGPELVKPGASVKMSCKASGYTFTSYVINWVKQKPGQGLEWIGLINPYNDGTKYNEKFKVKATLTSDKSSSTAYMELSSLTSEDSAVYYCASYYYGSRYYFDYWGQGTTLTVSS
# VL: DIQMTQSSSYLSVSLGGRVTITCKASDHINNWLAWYQQKPGNAPRLLISGATSLETGVPSRFSGSGSGKDYTLSITSLQTEDVATYYCQQYWSIPLTFGAGTKLELKR
# modifications: DVD-Ig outer
# B17: DVD506 DLL4 arm (antibody, V domains shown)
# VH: EVQLQQSGPELVKPGASVKMSCKASGYTFTSYVINWVKQKPGQGLEWIGLINPYNDGTKYNEKFKVKATLTSDKSSSTAYMELSSLTSEDSAVYYCASYYYGSRYYFDYWGQGTTLTVSS
# VL: DIQMTQSSSYLSVSLGGRVTITCKASDHINNWLAWYQQKPGNAPRLLISGATSLETGVPSRFSGSGSGKDYTLSITSLQTEDVATYYCQQYWSIPLTFGAGTKLELKR
# modifications: DVD-Ig inner
# B18: DVD499 DLL4 arm (antibody, V domains shown)
# VH: EVQLQQSGPELVKPGASVKMSCKASGYTFTSYVINWVKQKPGQGLEWIGLINPYNDGTKYNEKFKVKATLTSDKSSSTAYMELSSLTSEDSAVYYCASYYYGSRYYFDYWGQGTTLTVSS
# VL: DIQMTQSSSYLSVSLGGRVTITCKASDHINNWLAWYQQKPGNAPRLLISGATSLETGVPSRFSGSGSGKDYTLSITSLQTEDVATYYCQQYWSIPLTFGAGTKLELKR
# modifications: DVD-Ig outer
# B19: DVD492 DLL4 arm (antibody, V domains shown)
# VH: EVQLQQSGPELVKPGASVKMSCKASGYTFTSYVINWVKQKPGQGLEWIGLINPYNDGTKYNEKFKVKATLTSDKSSSTAYMELSSLTSEDSAVYYCASYYYGSRYYFDYWGQGTTLTVSS
# VL: DIQMTQSSSYLSVSLGGRVTITCKASDHINNWLAWYQQKPGNAPRLLISGATSLETGVPSRFSGSGSGKDYTLSITSLQTEDVATYYCQQYWSIPLTFGAGTKLELKR
# modifications: DVD-Ig inner
# B20: DVD450 DLL4 arm (antibody, V domains shown)
# VH: QVQLVQSGAEVKKPGASVKISCKASGYSFTAYYIHWVKQAPGQGLEWIGYISSYNGATNYNQKFKGRVTFTTDTSTSTAYMELRSLRSDDTAVYYCARDYDYDVGMDYWGQGTLVTVSS
# VL: DIVMTQSPDSLAVSLGERATISCRASESVDNYGISFMKWFQQKPGQPPKLLIYAASNQGSGVPDRFSGSGSGTDFTLTISSLQAEDVAVYYCQQSKEVPWTFGGGTKVEIKR
# modifications: DVD-Ig inner
# B21: DVD447 DLL4 arm (antibody, V domains shown)
# VH: QVQLVQSGAEVKKPGASVKISCKASGYSFTAYYIHWVKQAPGQGLEWIGYISSYNGATNYNQKFKGRVTFTTDTSTSTAYMELRSLRSDDTAVYYCARDYDYDVGMDYWGQGTLVTVSS
# VL: DIVMTQSPDSLAVSLGERATISCRASESVDNYGISFMKWFQQKPGQPPKLLIYAASNQGSGVPDRFSGSGSGTDFTLTISSLQAEDVAVYYCQQSKEVPWTFGGGTKVEIKR
# modifications: DVD-Ig outer
# B22: DVD443 DLL4 arm (antibody, V domains shown)
# VH: QVQLVQSGAEVKKPGASVKISCKASGYSFTAYYIHWVKQAPGQGLEWIGYISSYNGATNYNQKFKGRVTFTTDTSTSTAYMELRSLRSDDTAVYYCARDYDYDVGMDYWGQGTLVTVSS
# VL: DIVMTQSPDSLAVSLGERATISCRASESVDNYGISFMKWFQQKPGQPPKLLIYAASNQGSGVPDRFSGSGSGTDFTLTISSLQAEDVAVYYCQQSKEVPWTFGGGTKVEIKR
# modifications: DVD-Ig outer
# Biological target: DLL4 (human, UniProt Q9NR61)
# Assay: ELISA
# Sequence of DLL4 (Q9NR61 27-524): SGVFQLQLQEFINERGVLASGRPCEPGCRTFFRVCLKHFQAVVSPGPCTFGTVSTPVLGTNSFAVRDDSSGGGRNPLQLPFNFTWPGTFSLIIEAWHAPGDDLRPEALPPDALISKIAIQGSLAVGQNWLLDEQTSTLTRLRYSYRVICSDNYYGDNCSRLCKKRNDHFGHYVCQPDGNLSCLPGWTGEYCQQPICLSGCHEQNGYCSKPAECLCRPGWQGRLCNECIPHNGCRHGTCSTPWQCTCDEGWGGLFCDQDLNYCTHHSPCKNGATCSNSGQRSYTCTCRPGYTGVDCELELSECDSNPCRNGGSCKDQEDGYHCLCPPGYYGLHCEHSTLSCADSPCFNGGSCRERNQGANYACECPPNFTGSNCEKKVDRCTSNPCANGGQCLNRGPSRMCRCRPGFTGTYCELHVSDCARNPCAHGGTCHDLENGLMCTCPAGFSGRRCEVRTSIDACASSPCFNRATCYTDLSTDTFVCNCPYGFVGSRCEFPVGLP
row,Binder,EC50 [nM]
1,B1,1.69
2,B2,3.3
3,B3,2.53
4,B4,0.3
5,B5,4.33
6,B6,0.1
7,B7,0.22
8,B8,5.9
9,B9,0.22
10,B10,0.81
11,B11,0.57
12,B12,0.18
13,B13,5.59
14,B14,3.17
15,B15,39.5
16,B16,0.33
17,B17,0.32
18,B18,0.09
19,B19,1.77
20,B20,1.99
21,B21,0.12
22,B22,0.2
